Results reported in patent publication US20150344570A1 (published 2015).

T1: FcγRIIa R (human, UniProt P12318 34-217)
T1 construct: extracellular domain; Soluble His-tagged extracellular domain expressed in FreeStyle293 cells; analyte in Biacore; also called FcgRIIa R; FcgRIIaR; not shown: His tag attached to the C terminus
T1 sequence (looked up): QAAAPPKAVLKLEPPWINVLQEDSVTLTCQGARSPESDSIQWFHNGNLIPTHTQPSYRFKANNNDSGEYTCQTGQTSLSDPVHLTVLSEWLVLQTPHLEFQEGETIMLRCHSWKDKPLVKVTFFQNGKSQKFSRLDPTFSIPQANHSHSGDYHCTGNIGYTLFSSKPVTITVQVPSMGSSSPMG

T2: FcγRIIb (human, UniProt P31994 43-217)
T2 construct: extracellular domain; Soluble His-tagged extracellular domain expressed in FreeStyle293 cells; analyte in Biacore; also called FcgRIIb; 2b; not shown: His tag attached to the C terminus
T2 sequence (looked up): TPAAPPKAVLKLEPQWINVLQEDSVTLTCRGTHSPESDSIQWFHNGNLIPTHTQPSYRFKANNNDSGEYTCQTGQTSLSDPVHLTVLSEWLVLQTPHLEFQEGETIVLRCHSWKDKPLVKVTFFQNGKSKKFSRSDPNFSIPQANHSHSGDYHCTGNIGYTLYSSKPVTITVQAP


Legend:
FcγRIIa R [1] = target: T1, FcγRIIa R; experiment: ratio of He/Con_2aR to He/Con_2b (binding to FcγRIIb as reference); SPR
FcγRIIb = target: T2, FcγRIIb; experiment: SPR (Biacore), antibody captured via antigen peptide, FcγR as analyte
Method: (§1) The heterodimerized antibodies He Abs in which one of the H chains was introduced with an alteration were assayed for their binding activities to each activating FcγR and inhibitory FcγR according to the method described in Example 4. […] The activating FcγRs in FIGS. 26, 27, 28, and 29 are FcγRIa, FcγRIIa (R), FcγRIIa (H), and FcγRIIIa, respectively.
(§2) Analysis of interaction between objective antibody and the FcγR was carried out using Biacore T100 (GE Healthcare). HBS-EP+ (GE Healthcare) was used as the running buffer, and the measurement temperature was set to 25° C. Chips produced by immobilizing the antigen peptide by the amine coupling method to a Series S Sencor Chip CM5 (GE Healthcare), or alternatively, chips produced by allowing preliminarily biotinylated antigen peptides to interact with and immobilize onto a Series S Sensor Chip SA (certified) (GE Healthcare) were used. Antibodies of interest were captured onto an antigen peptide-immobilized chip, and allowed to interact to each FcγR diluted with running buffer. To regenerate and repeatedly use the chip, the antibodies captured on the chip were washed off by reacting 10 mM glycine-HCl, pH 1.5.

FcγRIIa R [2] = target: T1, FcγRIIa R; experiment: as above
Method: as §1, §2

He_2aR/2b (IIaR/IIb) (FcγRIIa R [1]) | He/Con_2b (IIb binding relative to GpH7-A5/GpH7-B3/GpL16-k0) (FcγRIIb) | He/Con_2aR (IIaR binding relative to GpH7-A5/GpH7-B3/GpL16-k0) (FcγRIIa R [2]) | Binder
1.39 | 32.2 % of control (control = 100) | 44.7 % of control (control = 100) | GpH7-A5/GpH7-B3 variant P329_04F/GpL16-k0 (antibody, human IgG1, kappa, Heterodimerized anti-glypican-3 IgG1 antibody; alteration only in the GpH7-B3 H chain; position in EU numbering; also called He Ab) heavy 1: not shown heavy 2: not shown light: DIVMTQSPLSLPVTPGEPASISCQASESLVHSNRNTYLHWYLQKPGQSPQLLIYKVSNRFSGVPDRFSGSGSGTDFTLKISRVEAEDVGVYYCSQNTHVPPTFGQGTKVEIERTVAAPSVFIFPPSDEQLKSGTASVVCLLNNFYPREAKVQWKVDNALQSGNSQESVTEQDSKDSTYSLSSTLTLSKADYEKHKVYACEVTHQGLSSPVTKSFNRGEC
1.49 | 45.7 % of control (control = 100) | 67.9 % of control (control = 100) | GpH7-A5/GpH7-B3 variant P329_15Y/GpL16-k0 (antibody, human IgG1, kappa, Heterodimerized anti-glypican-3 IgG1 antibody; alteration only in the GpH7-B3 H chain; position in EU numbering; also called He Ab) heavy 1: not shown heavy 2: not shown light: DIVMTQSPLSLPVTPGEPASISCQASESLVHSNRNTYLHWYLQKPGQSPQLLIYKVSNRFSGVPDRFSGSGSGTDFTLKISRVEAEDVGVYYCSQNTHVPPTFGQGTKVEIERTVAAPSVFIFPPSDEQLKSGTASVVCLLNNFYPREAKVQWKVDNALQSGNSQESVTEQDSKDSTYSLSSTLTLSKADYEKHKVYACEVTHQGLSSPVTKSFNRGEC
1.51 | 40.4 % of control (control = 100) | 61.2 % of control (control = 100) | GpH7-A5/GpH7-B3 variant P329_18N/GpL16-k0 (antibody, human IgG1, kappa, Heterodimerized anti-glypican-3 IgG1 antibody; alteration only in the GpH7-B3 H chain; position in EU numbering; also called He Ab) heavy 1: not shown heavy 2: not shown light: DIVMTQSPLSLPVTPGEPASISCQASESLVHSNRNTYLHWYLQKPGQSPQLLIYKVSNRFSGVPDRFSGSGSGTDFTLKISRVEAEDVGVYYCSQNTHVPPTFGQGTKVEIERTVAAPSVFIFPPSDEQLKSGTASVVCLLNNFYPREAKVQWKVDNALQSGNSQESVTEQDSKDSTYSLSSTLTLSKADYEKHKVYACEVTHQGLSSPVTKSFNRGEC
1.51 | 37.9 % of control (control = 100) | 57.3 % of control (control = 100) | GpH7-A5/GpH7-B3 variant P329_14T/GpL16-k0 (antibody, human IgG1, kappa, Heterodimerized anti-glypican-3 IgG1 antibody; alteration only in the GpH7-B3 H chain; position in EU numbering; also called He Ab) heavy 1: not shown heavy 2: not shown light: DIVMTQSPLSLPVTPGEPASISCQASESLVHSNRNTYLHWYLQKPGQSPQLLIYKVSNRFSGVPDRFSGSGSGTDFTLKISRVEAEDVGVYYCSQNTHVPPTFGQGTKVEIERTVAAPSVFIFPPSDEQLKSGTASVVCLLNNFYPREAKVQWKVDNALQSGNSQESVTEQDSKDSTYSLSSTLTLSKADYEKHKVYACEVTHQGLSSPVTKSFNRGEC
1.45 | 39.1 % of control (control = 100) | 56.7 % of control (control = 100) | GpH7-A5/GpH7-B3 variant P329_16H/GpL16-k0 (antibody, human IgG1, kappa, Heterodimerized anti-glypican-3 IgG1 antibody; alteration only in the GpH7-B3 H chain; position in EU numbering; also called He Ab) heavy 1: not shown heavy 2: not shown light: DIVMTQSPLSLPVTPGEPASISCQASESLVHSNRNTYLHWYLQKPGQSPQLLIYKVSNRFSGVPDRFSGSGSGTDFTLKISRVEAEDVGVYYCSQNTHVPPTFGQGTKVEIERTVAAPSVFIFPPSDEQLKSGTASVVCLLNNFYPREAKVQWKVDNALQSGNSQESVTEQDSKDSTYSLSSTLTLSKADYEKHKVYACEVTHQGLSSPVTKSFNRGEC
1.23 | 52.7 % of control (control = 100) | 64.8 % of control (control = 100) | GpH7-A5/GpH7-B3 variant P329_10E/GpL16-k0 (antibody, human IgG1, kappa, Heterodimerized anti-glypican-3 IgG1 antibody; alteration only in the GpH7-B3 H chain; position in EU numbering; also called He Ab) heavy 1: not shown heavy 2: not shown light: DIVMTQSPLSLPVTPGEPASISCQASESLVHSNRNTYLHWYLQKPGQSPQLLIYKVSNRFSGVPDRFSGSGSGTDFTLKISRVEAEDVGVYYCSQNTHVPPTFGQGTKVEIERTVAAPSVFIFPPSDEQLKSGTASVVCLLNNFYPREAKVQWKVDNALQSGNSQESVTEQDSKDSTYSLSSTLTLSKADYEKHKVYACEVTHQGLSSPVTKSFNRGEC
1.47 | 29.1 % of control (control = 100) | 42.7 % of control (control = 100) | GpH7-A5/GpH7-B3 variant P329_06M/GpL16-k0 (antibody, human IgG1, kappa, Heterodimerized anti-glypican-3 IgG1 antibody; alteration only in the GpH7-B3 H chain; position in EU numbering; also called He Ab) heavy 1: not shown heavy 2: not shown light: DIVMTQSPLSLPVTPGEPASISCQASESLVHSNRNTYLHWYLQKPGQSPQLLIYKVSNRFSGVPDRFSGSGSGTDFTLKISRVEAEDVGVYYCSQNTHVPPTFGQGTKVEIERTVAAPSVFIFPPSDEQLKSGTASVVCLLNNFYPREAKVQWKVDNALQSGNSQESVTEQDSKDSTYSLSSTLTLSKADYEKHKVYACEVTHQGLSSPVTKSFNRGEC
1.4 | 38.5 % of control (control = 100) | 53.8 % of control (control = 100) | GpH7-A5/GpH7-B3 variant P329_03V/GpL16-k0 (antibody, human IgG1, kappa, Heterodimerized anti-glypican-3 IgG1 antibody; alteration only in the GpH7-B3 H chain; position in EU numbering; also called He Ab) heavy 1: not shown heavy 2: not shown light: DIVMTQSPLSLPVTPGEPASISCQASESLVHSNRNTYLHWYLQKPGQSPQLLIYKVSNRFSGVPDRFSGSGSGTDFTLKISRVEAEDVGVYYCSQNTHVPPTFGQGTKVEIERTVAAPSVFIFPPSDEQLKSGTASVVCLLNNFYPREAKVQWKVDNALQSGNSQESVTEQDSKDSTYSLSSTLTLSKADYEKHKVYACEVTHQGLSSPVTKSFNRGEC
